# Measurements as given in paper PMC9351521 (Proceedings of the National Academy of Sciences of the …, 2022).
# Changes are numbered by the printed parent chain. In names and notes the source's numbering stands. Several values for one entry are separate records, joined by “and”; a condition that tells them apart may be missing. Equal values may be shown once.
# B1: H11-A10 (VHH)
# VHH: QVQLVESGGGLMQAGGSLRLSCAVSGRTFSTAAMGWFRQAPGKEREFVAAIRWSGGSAYYADSVKGRFTISRDKAKNTVYLQMNSLKYEDTAVYYCAGFSATRSLLSDYATWPYDYWGQGTQVTVSS
# B2: nanobody H11-H4 R52A (VHH)
# VHH: B1 VHH with R52A, G98Q, F99T, S100H, A101Y, T102V, R103S, S104Y
# B3: nanobody H11-H4 R52E (VHH)
# VHH: B1 VHH with R52E, G98Q, F99T, S100H, A101Y, T102V, R103S, S104Y
# B4: nanobody H11-B5 (VHH)
# VHH: B1 VHH with G98S, F99Y, S100Q
# B5: H11-H4 Y104S (VHH)
# VHH: B1 VHH with G98Q, F99T, S100H, A101Y, T102V, R103S
# B6: H11-H4 Y104F (VHH)
# VHH: B1 VHH with G98Q, F99T, S100H, A101Y, T102V, R103S, S104F
# B7: H11-H4 Q98R H100E (D4 hybrid) (VHH)
# VHH: B1 VHH with G98R, F99T, S100E, A101Y, T102V, R103S, S104Y
# B8: H11 V101Y R103S (VHH)
# VHH: B1 VHH with G98Q, F99T, S100R, A101Y, R103S
# B9: nanobody H11-H6 (VHH)
# VHH: B1 VHH with F99S, S100K, A101I
# B10: H11-B5 (VHH)
# VHH: B1 VHH with G98S, F99Y, S100Q
# B11: nanobody H11-A10 (VHH)
# VHH: B1 VHH
# B12: H11-H4 Y101A (VHH)
# VHH: B1 VHH with G98Q, F99T, S100H, T102V, R103S, S104Y
# B13: nanobody H11-H4 R52K (VHH)
# VHH: B1 VHH with R52K, G98Q, F99T, S100H, A101Y, T102V, R103S, S104Y
# B14: H11-H6 (VHH)
# VHH: B1 VHH with F99S, S100K, A101I
# Legend:
# Settings in all cases: both partners purified
# [1] = molecular target: T1, RBD-Fc (SARS-CoV-2, wild-type RBD (P0DTC2 …)); assay: SPR; […]; Biacore T200, PBS pH 7.4 with 0.005% P20, 25 °C; 1:1 binding model; […]
# T1 construct: also called RBD (immobilized as RBD-Fc on the chip)
# [2] = molecular target: biotinylated RBD (SARS-CoV-2, wild-type RBD (P0DTC2 …)); assay: SPR; Biacore T200, PBS pH 7.4 with 0.005% P20, 25 °C; […]
# [3] = molecular target: RBD-Fc (SARS-CoV-2, wild-type RBD (P0DTC2 …)); assay: SPR; Biacore T200, PBS pH 7.4 with 0.005% P20, 25 °C; […]; 1:1 binding model
# [4] = molecular target: T2, biotinylated RBD (wild type) (SARS-CoV-2, wild-type RBD (P0DTC2 …)); assay: SPR; […]; Biacore T200, PBS pH 7.4 with 0.005% P20, 25 °C; […]
# [5] = molecular target: T2, biotinylated RBD (wild type); assay: SPR; […]; Biacore T200, PBS pH 7.4 with 0.005% P20, 25 °C; kinetic fit, 1:1 binding model; […]
binder,measurement,setting,value
B1,Kd,[1],9.2 nM and 9.3 nM
same,koff,[1],0.055 s⁻¹ and 0.047 s⁻¹
same,kon,[1],5.9e+06 M⁻¹ s⁻¹ and 5e+06 M⁻¹ s⁻¹
B2,binding result,[2],no binding
B3,binding result,[2],no binding
B4,t1/2,[3],14 s
B5,Kd,[4],273 nM
B6,Kd,[5],37.4 nM and 33.2 nM
same,koff,[5],0.072 s⁻¹ and 0.074 s⁻¹
same,kon,[5],1.9e+06 M⁻¹ s⁻¹ and 2.2e+06 M⁻¹ s⁻¹
B7,Kd,[5],4.3 nM and 4.8 nM
same,koff,[5],0.024 s⁻¹ and 0.025 s⁻¹
same,kon,[5],5.5e+06 M⁻¹ s⁻¹ and 5.2e+06 M⁻¹ s⁻¹
B8,Kd,[4],1700 nM
B9,t1/2,[3],25 s
B10,Kd,[1],8.8 nM and 7.6 nM
same,koff,[1],0.051 s⁻¹ and 0.046 s⁻¹
same,kon,[1],5.8e+06 M⁻¹ s⁻¹ and 6.1e+06 M⁻¹ s⁻¹
B11,t1/2,[3],14 s
B12,Kd,[4],791 nM
B13,binding result,[2],no binding
B14,Kd,[1],8.1 nM and 8.3 nM
same,koff,[1],0.032 s⁻¹ and 0.025 s⁻¹
same,kon,[1],3.9e+06 M⁻¹ s⁻¹ and 3e+06 M⁻¹ s⁻¹
